Data set [1] has as its target T1, RPA-AB (human, UniProt P27694 181-441). Briefly: FP; 100 mM NaCl; FP: 0.060 uM FAM-oligo, 10-1500 mM NaCl, room temperature; CD: Buffer A 25 mM Tris pH 7.5, 2 mM MgCl2, 6% glycerol, 1 mM DTT, 100 (or 10) mM NaCl, room temperature. On the set-up: unit not given here. As to conditions: protein: recombinant; tags: N-terminal His6, thrombin-cleaved; label: 5' 6-FAM; intramolecular G4, antiparallel at 100 mM NaCl, mixed/parallel at 10 mM NaCl.

The target in data set [2] is T2, RPA-CDE-core (human, UniProt P27694;P15927;P35244 436-616;43-171;1-121). Described as above. Also on record: unit not given here. As to conditions: protein: recombinant; tags: N-terminal His, thrombin-cleaved; copies: 1;1;1; label: 5' 6-FAM; intramolecular G4, antiparallel at 100 mM NaCl, mixed/parallel at 10 mM NaCl.
For data set [3], the target named is RPA-C (human, UniProt P27694 432-595, V435T;W442Q;V465T;V469T;F523S;F567S;I571T). Briefly: FP; 10 mM NaCl; FP: 0.060 uM FAM-oligo, 10-1500 mM NaCl, room temperature; CD: Buffer A 25 mM Tris pH 7.5, 2 mM MgCl2, 6% glycerol, 1 mM DTT, 100 (or 10) mM NaCl, room temperature. On the set-up: unit not given here. As to conditions: protein: recombinant; tags: N-terminal His, thrombin-cleaved; label: 5' 6-FAM; intramolecular G4, antiparallel at 100 mM NaCl, mixed/parallel at 10 mM NaCl.

In data set [4] the target is RPA-DE (human, UniProt P15927;P35244 43-171;1-121). Described as above. As to conditions: protein: recombinant; tags: N-terminal His, thrombin-cleaved; copies: 1;1; label: 5' 6-FAM; intramolecular G4, antiparallel at 100 mM NaCl, mixed/parallel at 10 mM NaCl. On the set-up: unit not given here.
In data set [5] the target is T2, RPA-CDE-core. The data set is described as above. Also on record: unit not given here. To be noted: protein: recombinant; tags: N-terminal His, thrombin-cleaved; copies: 1;1;1; label: 5' 6-FAM; intramolecular G4, antiparallel at 100 mM NaCl, mixed/parallel at 10 mM NaCl.
The target of data set [6] is T1, RPA-AB. Briefly: FP; 500 mM NaCl; FP: 0.060 uM FAM-oligo, 10-1500 mM NaCl, room temperature; CD: Buffer A 25 mM Tris pH 7.5, 2 mM MgCl2, 6% glycerol, 1 mM DTT, 100 (or 10) mM NaCl, room temperature. To be noted: protein: recombinant; tags: N-terminal His6, thrombin-cleaved; label: 5' 6-FAM; intramolecular G4, antiparallel at 100 mM NaCl, mixed/parallel at 10 mM NaCl.

Data set [7] addresses T2, RPA-CDE-core. The description is as above. To be noted: protein: recombinant; tags: N-terminal His, thrombin-cleaved; copies: 1;1;1; label: 5' 6-FAM; intramolecular G4, antiparallel at 100 mM NaCl, mixed/parallel at 10 mM NaCl.
Data set [8] addresses T3, RPA (full-length heterotrimer RPA1/RPA2/RPA3) (human, UniProt P27694;P15927;P35244 1-616;1-270;1-121). Briefly: FP; 500 mM NaCl; stoichiometric (equilibrium only at 1250 mM); FP: 0.060 uM FAM-oligo, 10-1500 mM NaCl, room temperature; CD: Buffer A 25 mM Tris pH 7.5, 2 mM MgCl2, 6% glycerol, 1 mM DTT, 100 (or 10) mM NaCl, room temperature. To be noted: protein: recombinant; copies: 1;1;1; label: 5' 6-FAM; intramolecular G4, antiparallel at 100 mM NaCl, mixed/parallel at 10 mM NaCl.

Data set [9] has as its target T3, RPA (full-length heterotrimer …). Briefly: FP; 1250 mM NaCl; FP: 0.060 uM FAM-oligo, 10-1500 mM NaCl, room temperature; CD: Buffer A 25 mM Tris pH 7.5, 2 mM MgCl2, 6% glycerol, 1 mM DTT, 100 (or 10) mM NaCl, room temperature. As to conditions: protein: recombinant; copies: 1;1;1; label: 5' 6-FAM; intramolecular G4, antiparallel at 100 mM NaCl, mixed/parallel at 10 mM NaCl. On the set-up: unit not given here.

Data set [10] shares this target. Briefly: FP; 1500 mM NaCl; FP: 0.060 uM FAM-oligo, 10-1500 mM NaCl, room temperature; CD: Buffer A 25 mM Tris pH 7.5, 2 mM MgCl2, 6% glycerol, 1 mM DTT, 100 (or 10) mM NaCl, room temperature. On the set-up: unit not given here. To be noted: protein: recombinant; copies: 1;1;1; label: 5' 6-FAM; intramolecular G4, antiparallel at 100 mM NaCl, mixed/parallel at 10 mM NaCl.

T3 sequence (P27694 whole entry, chain 1 of 3): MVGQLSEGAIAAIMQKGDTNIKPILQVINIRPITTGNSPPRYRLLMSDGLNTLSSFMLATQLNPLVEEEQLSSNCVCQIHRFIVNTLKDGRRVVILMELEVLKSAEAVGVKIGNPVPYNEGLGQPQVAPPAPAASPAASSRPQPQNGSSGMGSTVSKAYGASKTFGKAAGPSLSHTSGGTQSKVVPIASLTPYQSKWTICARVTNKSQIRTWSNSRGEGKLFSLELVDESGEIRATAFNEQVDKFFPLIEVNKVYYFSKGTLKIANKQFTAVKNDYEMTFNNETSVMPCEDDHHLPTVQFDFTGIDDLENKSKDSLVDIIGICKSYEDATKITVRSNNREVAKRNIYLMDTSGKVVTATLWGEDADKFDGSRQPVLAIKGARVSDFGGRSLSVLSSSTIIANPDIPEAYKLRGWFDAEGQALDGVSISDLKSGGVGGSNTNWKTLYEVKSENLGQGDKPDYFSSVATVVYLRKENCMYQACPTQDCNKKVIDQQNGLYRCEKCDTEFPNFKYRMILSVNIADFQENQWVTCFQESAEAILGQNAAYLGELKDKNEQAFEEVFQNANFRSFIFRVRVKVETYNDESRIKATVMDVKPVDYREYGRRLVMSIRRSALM
T3 sequence (P15927 whole entry, chain 2 of 3): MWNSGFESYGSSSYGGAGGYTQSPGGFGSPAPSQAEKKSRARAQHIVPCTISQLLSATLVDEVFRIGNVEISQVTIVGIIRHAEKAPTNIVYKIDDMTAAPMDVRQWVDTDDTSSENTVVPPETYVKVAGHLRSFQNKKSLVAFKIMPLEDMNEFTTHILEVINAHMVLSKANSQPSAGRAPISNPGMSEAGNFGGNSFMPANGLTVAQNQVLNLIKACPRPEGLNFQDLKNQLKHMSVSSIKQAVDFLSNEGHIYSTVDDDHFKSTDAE
T3 sequence (P35244 whole entry, chain 3 of 3): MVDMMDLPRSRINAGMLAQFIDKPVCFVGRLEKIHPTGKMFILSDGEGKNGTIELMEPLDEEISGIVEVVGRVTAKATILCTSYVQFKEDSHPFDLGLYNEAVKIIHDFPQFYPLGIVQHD
T2 sequence (P27694 436-616, chain 1 of 3): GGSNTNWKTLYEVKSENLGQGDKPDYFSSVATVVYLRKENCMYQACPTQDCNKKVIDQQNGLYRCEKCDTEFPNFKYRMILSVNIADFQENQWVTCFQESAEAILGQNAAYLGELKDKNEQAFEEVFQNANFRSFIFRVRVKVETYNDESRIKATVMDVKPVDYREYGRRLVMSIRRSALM
T2 sequence (P15927 43-171, chain 2 of 3): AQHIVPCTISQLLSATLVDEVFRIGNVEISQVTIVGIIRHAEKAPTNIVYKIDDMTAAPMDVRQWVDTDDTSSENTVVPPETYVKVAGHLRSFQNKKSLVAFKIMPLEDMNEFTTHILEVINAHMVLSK
T2 sequence (P35244 whole entry, chain 3 of 3): as the sequence (P35244 whole entry, chain 3 of 3) above
T1 sequence (P27694 181-441): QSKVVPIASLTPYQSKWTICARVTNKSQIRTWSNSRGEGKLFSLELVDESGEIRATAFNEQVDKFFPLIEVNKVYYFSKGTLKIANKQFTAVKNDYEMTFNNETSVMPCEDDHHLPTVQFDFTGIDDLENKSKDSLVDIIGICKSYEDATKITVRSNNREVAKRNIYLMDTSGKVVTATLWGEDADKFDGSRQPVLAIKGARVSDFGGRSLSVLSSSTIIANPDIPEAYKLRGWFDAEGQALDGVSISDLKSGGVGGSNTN
Sequence of RPA-DE (P15927 43-171, chain 1 of 2): as the sequence (P15927 43-171, chain 2 of 3) above
Sequence of RPA-DE (P35244 whole entry, chain 2 of 2): as the sequence (P35244 whole entry, chain 3 of 3) above
Sequence of RPA-C (P27694 432-595 V435T/W442Q/V465T/V469T/F523S/F567S/I571T): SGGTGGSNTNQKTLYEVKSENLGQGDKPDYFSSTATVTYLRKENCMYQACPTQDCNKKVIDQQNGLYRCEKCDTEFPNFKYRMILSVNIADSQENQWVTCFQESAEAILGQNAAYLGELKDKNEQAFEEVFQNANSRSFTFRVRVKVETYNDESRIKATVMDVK

Turning to TAGGGGAAGGGTTGGAGTGGGTT (structured_DNA, 18-carbon spacer (sp18) at 5' end) [Gq23 (FP)], the Kd in data set [1] worked out at 0.44; in data set [2], 0.55; in data set [3] it was 3.62; in data set [4] it was 6.68; in data set [5], 0.16; in data set [6], 3.28. For the same molecule, the Kd in [7] was 11.9 µM; in [8], ~0.04 0.02; in [9], 0.37; in data set [10], 0.85.

The values above are taken from PMC3136212, “Identification of the DNA-Binding Domains of Human Replication Protein A That Recognize G-Quadruplex DNA”.
